The values below are quoted from earlier work in US5362858A, “Polyethylene glycol-hirudin conjugates, process for preparing them and their use for the treatment of thromboses” (Transgene S.A., priority 1992, dated 1994).

The conditions of the series: removal from the bloodstream.

Regarding hirudin, the half-life period result is given as “about 1 h”.
